# Measured values: PMC6894463, “Improved spectrophotometric assay for lytic polysaccharide monooxygenase” (Biotechnology for Biofuels, 2019)
# B1: NcLPMO9C (Neurospora crassa OR74A) (protein)
# chain: HTIFQKVSVNGADQGQLKGIRAPANNNPVTDVMSSDIICNAVTMKDSNVLTVPAGAKVGHFWGHEIGGAAGPNDADNPIAASHKGPIMVYLAKVDNAATTGTSGLKWFKVAEAGLSNGKWAVDDLIANNGWSYFDMPTCIAPGQYLMRAELIALHNAGSQAGAQFYIGCAQINVTGGGSASPSNTVSFPGAYSASDPGILINIYGGSGKTDNGGKPYQIPGPALFTCPAGGSGGSSPAPATTASTPKPTSASAPKPVSTTASTPKPTNGSGSGTGAAHSTKCGGSKPAATTKASNPQPTNGGNSAVRAAALYGQCGGKGWTGPTSCASGTCKFSNDWYSQCLP
# notes: full-length secreted enzyme, recombinant in Pichia pastoris X-33, purified
# Substrate: COc1cc(-c2cc(OC)c(O)c(OC)c2)cc(OC)c1O
# Experiment: purified protein
# Format: biochemical, Neurospora crassa
# Settings: 100 µM H2O2 co-substrate, 50 mM sodium phosphate pH 6.0, apparent, no saturation reached
protein,measurement,value
B1,Km,3.6 ± 0.5 mM
